Reference: US7645583B2, “Identification of compounds for inhibiting complexation of C-reactive protein with fibronectin” (Kimberly-Clark Worldwide, Inc., priority 2005, dated 2010)

Biological target: CRP/Fn binding (CRP captured on immobilized CRP antibody, Fn injected) (Homo sapiens, UniProt P02741+P02751)
Assay: SPR (Biacore X) in vitro model of the inhibitory effect of test compounds on CRP/Fn binding
Set-up: 10 μL of CRP antigen 6 (50 μg/mL) was injected in flow channel 2
Conditions: for inhibitory effect on CRP/Fn binding (in words): at the conditions of Table 3; for SPR Response (RU): control without inhibitor 118 RU
Procedure: An in vitro model was designed to determine inhibitory effect of several different test compounds on CRP/Fn binding. Surface plasmon resonance (SPR) measurements were performed using a Biacore® X system and amine coupling kit for immobilization. […] All experiments were performed at 25° C., unless otherwise specified. The SPR technology used is based on optical phenomena in which the measured response depends on a change in refractive index in the close vicinity of the sensor chip surface. The response in such systems is proportional to the mass of analyte bound to the surface. The SPR method was used to monitor continuous analysis over the course of the interaction. […] (catalog number A58110228P), which specifically binds to calcium/phosphocholine site of CRP, was immobilized on a surface of a sensor chip 23 (CM5, carboxyl functionalized) via amine coupling chemistry as is generally known in the art. Following immobilization of the antibody to the surface of the chip 23, 10 μL of CRP antigen 6 (50 μg/mL) was injected in flow channel 2. Following this injection, 60 μL of an Fn solution 8 was injected into both flow channel 1 and flow channel 2 for two minutes duration (association phase), followed by 2 minutes delay time (dissociation phase). […] The process was repeated with an Fn solution including no inhibitor material as a control as well as several Fn solutions including various inhibitor compounds as herein described. Fn concentration was 1 mg/mL in all solutions.

[1] = inhibitor 50 μM, Fn 1 mg/mL, 25° C.
[2] = inhibitor 50 μM, Fn 1 mg/mL, 25° C., relative to control without inhibitor

Chain of CRP/Fn binding (CRP captured on immobilized CRP antibody, Fn injected) (P02741 19-224): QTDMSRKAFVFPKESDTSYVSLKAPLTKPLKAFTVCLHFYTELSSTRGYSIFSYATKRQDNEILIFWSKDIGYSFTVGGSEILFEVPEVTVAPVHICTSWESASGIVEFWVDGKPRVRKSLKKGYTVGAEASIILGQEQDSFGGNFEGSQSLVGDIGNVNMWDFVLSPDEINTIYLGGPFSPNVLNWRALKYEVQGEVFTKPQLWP
Chain of CRP/Fn binding (CRP captured on immobilized CRP antibody, Fn injected) (P02751 32-2477): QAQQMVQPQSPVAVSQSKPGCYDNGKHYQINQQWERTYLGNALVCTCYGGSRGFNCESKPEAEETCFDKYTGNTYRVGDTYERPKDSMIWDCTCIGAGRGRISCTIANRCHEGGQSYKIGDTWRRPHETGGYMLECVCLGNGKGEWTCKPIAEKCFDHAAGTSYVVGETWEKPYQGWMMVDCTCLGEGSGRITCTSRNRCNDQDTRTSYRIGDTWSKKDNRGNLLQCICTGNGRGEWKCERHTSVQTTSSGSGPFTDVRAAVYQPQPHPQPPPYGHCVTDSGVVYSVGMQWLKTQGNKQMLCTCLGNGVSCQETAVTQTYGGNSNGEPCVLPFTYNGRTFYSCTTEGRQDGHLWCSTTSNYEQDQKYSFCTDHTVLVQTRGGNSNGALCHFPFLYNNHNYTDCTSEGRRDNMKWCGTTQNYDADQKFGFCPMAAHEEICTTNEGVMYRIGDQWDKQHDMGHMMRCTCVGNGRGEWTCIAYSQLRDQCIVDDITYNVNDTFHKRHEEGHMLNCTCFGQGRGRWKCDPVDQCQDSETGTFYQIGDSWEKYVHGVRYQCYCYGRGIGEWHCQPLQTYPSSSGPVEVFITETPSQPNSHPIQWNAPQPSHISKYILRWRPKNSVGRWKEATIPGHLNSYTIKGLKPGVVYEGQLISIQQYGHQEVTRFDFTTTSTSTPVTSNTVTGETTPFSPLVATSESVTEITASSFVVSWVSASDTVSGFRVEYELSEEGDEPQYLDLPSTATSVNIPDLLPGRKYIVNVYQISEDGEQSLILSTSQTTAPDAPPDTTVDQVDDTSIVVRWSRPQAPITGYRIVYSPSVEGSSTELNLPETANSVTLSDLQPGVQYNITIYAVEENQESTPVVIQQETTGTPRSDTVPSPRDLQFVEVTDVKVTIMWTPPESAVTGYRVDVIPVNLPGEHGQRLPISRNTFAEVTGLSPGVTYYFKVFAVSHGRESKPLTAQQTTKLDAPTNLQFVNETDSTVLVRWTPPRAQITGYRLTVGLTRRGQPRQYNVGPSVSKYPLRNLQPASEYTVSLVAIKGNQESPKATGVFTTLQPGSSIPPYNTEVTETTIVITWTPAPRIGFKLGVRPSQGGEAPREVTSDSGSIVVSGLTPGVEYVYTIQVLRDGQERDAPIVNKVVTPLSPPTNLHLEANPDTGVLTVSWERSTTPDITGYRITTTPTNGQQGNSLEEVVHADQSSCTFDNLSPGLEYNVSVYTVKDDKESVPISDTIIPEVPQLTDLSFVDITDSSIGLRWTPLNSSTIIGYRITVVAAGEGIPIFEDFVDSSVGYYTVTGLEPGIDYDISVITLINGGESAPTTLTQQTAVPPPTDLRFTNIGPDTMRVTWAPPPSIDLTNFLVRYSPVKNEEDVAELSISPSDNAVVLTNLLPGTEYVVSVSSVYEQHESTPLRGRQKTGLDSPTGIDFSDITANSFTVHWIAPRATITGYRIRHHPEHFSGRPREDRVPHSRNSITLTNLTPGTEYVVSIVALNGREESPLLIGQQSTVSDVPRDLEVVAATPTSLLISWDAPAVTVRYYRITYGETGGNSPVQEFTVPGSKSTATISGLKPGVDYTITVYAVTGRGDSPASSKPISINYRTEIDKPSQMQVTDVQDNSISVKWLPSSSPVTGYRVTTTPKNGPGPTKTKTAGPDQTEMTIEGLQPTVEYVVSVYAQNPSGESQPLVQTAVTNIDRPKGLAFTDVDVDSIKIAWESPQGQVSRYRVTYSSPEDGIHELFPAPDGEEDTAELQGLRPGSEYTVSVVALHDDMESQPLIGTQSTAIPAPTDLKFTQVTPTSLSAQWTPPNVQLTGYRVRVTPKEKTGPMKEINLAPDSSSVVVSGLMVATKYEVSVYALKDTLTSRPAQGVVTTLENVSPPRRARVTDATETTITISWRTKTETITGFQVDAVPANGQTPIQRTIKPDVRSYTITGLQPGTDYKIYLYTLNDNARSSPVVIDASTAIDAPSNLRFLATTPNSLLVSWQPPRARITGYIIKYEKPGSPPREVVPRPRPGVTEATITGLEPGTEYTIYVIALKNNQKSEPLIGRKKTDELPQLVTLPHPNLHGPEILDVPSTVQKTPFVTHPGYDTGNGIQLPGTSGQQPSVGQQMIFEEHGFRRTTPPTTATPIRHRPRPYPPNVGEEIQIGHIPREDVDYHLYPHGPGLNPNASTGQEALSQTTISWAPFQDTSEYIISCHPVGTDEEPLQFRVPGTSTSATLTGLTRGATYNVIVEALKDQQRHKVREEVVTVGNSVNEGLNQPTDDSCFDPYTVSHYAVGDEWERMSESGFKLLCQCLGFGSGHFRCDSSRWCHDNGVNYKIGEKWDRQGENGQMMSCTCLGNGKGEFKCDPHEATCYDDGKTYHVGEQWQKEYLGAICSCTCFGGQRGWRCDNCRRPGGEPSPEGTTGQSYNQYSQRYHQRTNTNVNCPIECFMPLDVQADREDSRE

Row | Compound | inhibitory effect on CRP/Fn binding (in words) | SPR Response (RU) [1] | % Inhibition [2] | SPR Response (RU) (inhibitor 40 μM, Fn 1 mg/mL, 25° C.) | % Inhibition (inhibitor 40 μM, Fn 1 mg/mL, 25° C., relative to control without inhibitor) | SPR Response (RU) (inhibitor 200 μM, Fn 1 mg/mL, 25° C.) | inhibition at 200 µM (inhibitor 200 μM, Fn 1 mg/mL, 25° C., relative to control without inhibitor)
1 | 9-mer: 9 mer segment of SEQ ID NO.:11, specifically the first nine amino acids of SEQ ID NO.:11 (PRCGNPDVA; listed as Homo sapiens) | no significant effect | 119 RU | 0.0% | – | – | – | –
2 | 10-mer: 10-mer polypeptide of SEQ ID NO.:12, exemplary inhibitor of CRP/Fn complexation (NYNFFPRKPK; listed as Homo sapiens) | somewhat less inhibitory effect | 76 RU | 35.6% | – | – | – | –
3 | CC/C=C\C[C@H]1C(=O)CC[C@@H]1CC(=O)O [Jasmonic acid, jasmonic acid] | somewhat less inhibitory effect | – | – | 94 RU | 20.4% | – | –
4 | C=C1C[C@]23C[C@@]1(O)CC[C@H]2[C@@]12C=C[C@H](O)[C@@](C)(C(=O)O1)[C@H]2[C@@H]3C(=O)O [Gibberellic acid, gibberellic acid] | somewhat less inhibitory effect | – | – | – | – | 90 RU | 23.7%
